The record followed here is patent publication US20120220538A1 (UNIVERSITY OF LOUISVILLE RESEARCH FOUNDATION, published 2012).

Assay [1] deals with human histone 4 (human, UniProt P62805 2-103). Nature of the assay: in vitro histone binding assay, histone coated on plate, anti-lunasin polyclonal antibody + HRP secondary, A450.
Assay [2] has as its target human histone 3.3 (human, UniProt P84243 2-136). Described as above.

B1: soybean-derived lunasin (lunasin purified from soybean white flake) (peptide)
peptide: SKWQHQQDSCRKQLQGVNLTPCEKHIMEKIQGRGDDDDDDDDDN
notes: Purified from soybean white flake and released from the lunasin-containing complex with a reducing agent; also called purified lunasin; highly purified soybean-derived lunasin
As to B1, the binding result in assay [1] and in assay [2] was “binds” throughout.

B2: synthetic lunasin (peptide)
peptide: SKWQHQQDSCRKQLQGVNLTPCEKHIMEKIQGRGDDDDDDDDD
notes: Made by peptide synthesis; It is the 43-residue published form of lunasin; also called synthetic lunasin created by peptide synthesis
For the molecule B2, the binding result in assay [1] and in assay [2] was “binds” throughout.
